Molecular target: the molecule itself
Test: crystal structure; serial femtosecond crystallography (XFEL, LCLS CXI) at room temperature (291 K) on crystals grown in living Sf9 cells, isolated and kept in PBS; 2.80 Å; space group P4 21 2, two monomers in the asymmetric unit; native ATP and GMP bound

B1: Trypanosoma brucei inosine-5'-monophosphate dehydrogenase (enzyme, UniProt P50098 1-512, looked up)
chain: MENTNLRTKTLRDGTTAEELFSQDGLSFNDFIILPGFIDFDSSKVNVSGQFTKNILLHLPLVSSPMDTVTESSMARAMALMGGIGVIHNNCTVEQQARMVRSVKLYRNGFIMKPKSVSPDVPVSTIRNIKSEKGISGILVTEGGKYDGKLLGIVCTKDIDFVKDASAPVSQYMTRRENMTVERYPIKLEEAMDVLNRSRHGYLPVLNDKDEVVCLCSRRDAVRARDYPNSSLDRNGHLLCAAATSTREADKGRVAALSEAGIDVLVLDSSQGNTIYQVSFIRWVKKTYPHLEVVAGNVVTQDQAKNLIDAGADSLRIGMGSGSICITQEVLACGRPQATAIYKVARYAASRGVPCVADGGLRNVGDVCKALAVGANVAMLGSMIAGTSETPGEYFFKDGMRLKGYRGMGSIDAMLQGRESGKRYLSENETLQVAQGVAGAVLDKGSVLKLLAYIHKGLQQSAQDIGEVSFDAIREKVYEGQVLFNRRTLTAQSEGAVHSLHHYERKLFASKL
notes: Inosine-5'-monophosphate dehydrogenase of Trypanosoma brucei, full length, with its native C-terminal SKL motif (PTS1); Two monomers in the asymmetric unit; the octamer arises by crystal symmetry; also called TbIMPDH; IMPDH; source: Sf9 insect cells infected with recombinant baculovirus; crystallised in cellulo, crystals isolated by cell lysis (RIPA buffer), washed and stored in PBS; not shown: …
With B1 the “stoichiometry N” value was 8.

— paper PMC6992785, “In cellulo crystallization of Trypanosoma brucei IMP dehydrogenase enables the identification of genuine co-factors” (Nature Communications, 2020)
